Data set [1] concerns ZFN7263 linker TGGGGSQKP (artificial). Nature of the data set: cell_activity. To be noted: yeast, paired with 7264 ZFN.
Data set [2] relates to ZFN7263 linker TYPRPLLAKP (artificial). Description: cell_activity. To be noted: yeast, paired with 7264 ZFN.
Data set [3] relates to ZFN7263 (host) (artificial). Nature of the data set: cell_activity. The following applies: yeast, paired with 7264 ZFN.
The subject of data set [4] is ZFN7263 linker TPLCQRPMKQKP (artificial). Description: cell_activity. The following applies: yeast, paired with 7264 ZFN.
Data set [5] relates to ZFN7263 linker TPRPPIPKP (artificial). Nature of the data set: cell_activity. The following applies: yeast, paired with 7264 ZFN.
Data set [6] has as its system ZFN7263 linker TQRPQIPPKP (artificial). Nature of the data set: cell_activity. To be noted: yeast, paired with 7264 ZFN.
Data set [7] concerns ZFN7263 linker TPNRCPPTKP (artificial). Nature of the data set: cell_activity. The following applies: yeast, paired with 7264 ZFN.
The subject of data set [8] is ZFP8196 linker 1d (artificial).
Data set [9] deals with ZFP8196 linker TPDAPKPKP (artificial).
Data set [10] has as its system ZFP8196 linker TCPRPPTRKP (artificial).
Data set [11] has as its system ZFP8196 linker TVSPAPCRSKP (artificial).
Data set [12] deals with ZFP8196 linker TPSHTPRPKP (artificial).
Data set [13] relates to ZFP8196 linker 1c (artificial).
For data set [14], the system named is ZFP8196 linker TSPRLPAPKP (artificial).
Data set [15] relates to ZFP8196 linker TGGGGSQKP (artificial).
In data set [16] the test system is ZFP8196 linker TPDRPISTCKP (artificial).
For data set [17], the system named is ZFP8196 (host, center linker TGEKP) (artificial).
Data set [18] has as its system ZFP8196 linker TPGLHRPKP (artificial).
The test system of data set [19] is ZFP8196 linker TGEGGKP (artificial).
The subject of data set [20] is ZFP8196 linker TGYSIPRPKP (artificial).
Data set [21] relates to ZFP8196 linker TSSPRSNAKP (artificial).
In data set [22] the test system is ZFP8196 linker TEPRAKPPKP (artificial).
For data set [23], the system named is ZFP8196 linker LRQKDERP (artificial).
Data set [24] deals with ZFP8196 linker 1f center linker F2-F3 TGEKP replaced by TYPRPIAAKP (artificial). Nature of the data set: ELONA. To be noted: normalized ELISA score.
For data set [25], the system named is ZFP7263 linker TYPRPLLAKP center linker F2-F3 TGSQKP replaced by TYPRPLLAKP (artificial). Nature of the data set: ELONA. To be noted: normalized ELISA score. A general note: An ELISA detects its analyte on a solid surface through an enzyme-linked reagent.
The subject of data set [26] is ZFP7263 linker TGEGGKP (artificial).
The test system of data set [27] is ZFP7263 linker TPNRCPPTKP (artificial).
The subject of data set [28] is ZFP7263 linker TPRPPIPKP (artificial).
Data set [29] has as its system ZFP7263 (host, center linker TGSQKP) (artificial).
Data set [30] concerns ZFP7263 linker TGGGGSQKP (artificial).
In data set [31] the test system is ZFP7263 linker TQRPQIPPKP (artificial).
The test system of data set [32] is ZFP7263 linker TPLCQRPMKQKP (artificial).
The subject of data set [33] is ZFP7263 linker LRQKDERP (artificial).
For data set [34], the system named is ZFP7264 linker TLPPCFRPKP (artificial).
Data set [35] concerns ZFP7264 linker TKHGTPKHREDKP (artificial).
Data set [36] has as its system ZFP7264 linker TGGGGSQKP (artificial).
Data set [37] concerns ZFP7264 linker TSRPRPKP (artificial).
Data set [38] relates to ZFP7264 (host, center linker TGSQKP) (artificial).
Data set [39] concerns ZFP7264 linker TGEGGKP (artificial).
Data set [40] deals with ZFP7264 linker LRQKDERP (artificial).
In data set [41] the test system is ZFP7264 linker TLPLPRPKP (artificial).
The subject of data set [42] is ZFP7264 linker TGLPKPKP (artificial).
The subject of data set [43] is ZFP7264 linker 1e center linker F2-F3 TGSQKP replaced by TVPRPTPPKP (artificial). Description: ELONA. The following applies: normalized ELISA score.

Take “ACTCTGACTGGAAG (double strand) [7263 yeast half-site gap AC]”: the activity (normalized MEL-1) in data set [1] was found to be 0.04; in data set [2], 0.1; in data set [3], 0.09; in data set [4] (value as printed) it was 1.05; in data set [5] it was 0.05; in [6], 0.03. For the same sequence, in data set [7], the activity (normalized MEL-1) came out at 0.04.

Regarding “ACTCTGATGGAAG (double strand) [7263 yeast half-site gap A]”, the activity (normalized MEL-1) came out at 0.14 in data set [1]; 0.69 in [2]; 0.05 in data set [3]; 0.97 in [4]; 1.3 in data set [5]; 1.05 in data set [6]. Besides, in data set [7], the activity (normalized MEL-1) came out at 1.3.

Turning to “ACTCTGCTGGAAG (double strand) [7263 yeast half-site gap C]”, the activity (normalized MEL-1) worked out at 0.04 in [1]; 0.37 in data set [2]; 0.05 in data set [3]; 0.3 in [4]; 1.41 in data set [5]; 0.43 in data set [6]. For the same sequence, the activity (normalized MEL-1) in data set [7] is 0.34.

On to “ACTCTGGTGGAAG (double strand) [7263 yeast half-site gap G]”, for which the activity (normalized MEL-1) in data set [1] was 0.6; in [2] it was 2.21; in data set [3] it was 0.09; in data set [4], 1.52; in data set [5] it was 2.18; in data set [6], 2.18. In data set [7], the activity (normalized MEL-1) stood at 2.85.

With “TTAGATAAACTGACAAAAGGCTATC (double strand) [8196 target gap A]”, the binding signal (normalized ELISA) in data set [8] came out at 0.23; in [9], 0.16; in [10], 0.18; in [11], 0.03; in data set [12], 0.3; in data set [13], 0.2. In addition, the binding signal (normalized ELISA) in data set [14] amounted to 0.26; in data set [15], 0; in [16], 0.11; in [17] it was 0.01; in [18], 0.19; in data set [19], 0. In addition, the binding signal (normalized ELISA) in data set [20] was 0.13; in data set [21], 0.05; in data set [22], 0.39; in [23] it was 0.01. Moreover, the binding signal in data set [24] came to 0.41.

On to “TTAGATAAACTGCCAAAAGGCTATC (double strand) [8196 target gap C]”, for which the binding signal (normalized ELISA) in [8] stood at 0.09; in data set [9] it was 0.13; in [10] it was 0.05; in [11], 0.01; in data set [12], 0.13; in data set [13], 0.09. In addition, the binding signal (normalized ELISA) in data set [14] worked out at 0.14; in data set [15], 0; in data set [16], 0.05; in data set [17] it was 0.01; in [18], 0.1; in data set [19], 0. The binding signal (normalized ELISA) in data set [20] was 0.06; in [21] it was 0.02; in data set [22], 0.17; in data set [23], 0.01. The sequence further returned a binding signal in data set [24] of 0.14.

In the case of “TTAGATAAACTGGCAAAAGGCTATC (double strand) [8196 target gap G]”, the binding signal (normalized ELISA) in [8] is 0.52; in data set [9], 0.68; in data set [10], 0.48; in data set [11] it was 0.14; in data set [12], 0.84; in data set [13], 0.57. Further, the binding signal (normalized ELISA) amounted to 0.62 in [14]; 0 in data set [15]; 0.29 in data set [16]; 0.03 in data set [17]; 0.65 in data set [18]; 0.03 in data set [19]. Further, the binding signal (normalized ELISA) in [20] turned out to be 0.43; in data set [21] it was 0.2; in data set [22], 0.78; in [23], 0.04. Besides, the binding signal in [24] is 0.65.

In turn, “TTAGCCACTCTGATGGAAGTGTATC (double strand) [7263 target gap A]” registered a binding signal in data set [25] of 1.95. Also, the binding signal (normalized ELISA) in data set [26] was 0.02; in data set [27], 1.68; in data set [28], 0.97; in data set [29], 0.01; in [30], 0.06; in data set [31], 1.66. Besides, the binding signal (normalized ELISA) came out at 1.82 in [32] and 0.03 in [33].

Regarding “TTAGCCACTCTGCTGGAAGTGTATC (double strand) [7263 target gap C]”, in data set [25], the binding signal stood at 1.27. Moreover, the binding signal (normalized ELISA) in data set [26] worked out at 0.02; in [27] it was 1.13; in data set [28] it was 0.67; in data set [29], 0.01; in data set [30], 0.05; in data set [31], 1. Also, the figures for the binding signal (normalized ELISA) in data set [32] and in data set [33] were 1.28 and 0.02, respectively.

For the sequence “TTAGCCACTCTGGTGGAAGTGTATC (double strand) [7263 target gap G]”, the binding signal in [25] turned out to be 3.88. Besides, the binding signal (normalized ELISA) came to 0.05 in data set [26]; 2.62 in data set [27]; 1.85 in data set [28]; 0.03 in data set [29]; 0.41 in data set [30]; 2.86 in data set [31]. The binding signal (normalized ELISA) was 3.44 in data set [32] and 0.18 in [33].

As for “TTAGTTAAAGCGAGCTCCGAATATC (double strand) [7264 target gap A]”, the binding signal (normalized ELISA) worked out at 0.72 in data set [34]; 0.01 in [35]; 0.07 in [36]; 0.52 in [37]; 0 in data set [38]; 0.02 in [39]. Further, the binding signal (normalized ELISA) in [40] came to 0.05; in data set [41], 0.58; in [42] it was 0.19. In data set [43], this sequence came in with a binding signal of 2.35.

On to “TTAGTTAAAGCGCGCTCCGAATATC (double strand) [7264 target gap C]”, for which the binding signal (normalized ELISA) amounted to 0.25 in data set [34]; 0.01 in data set [35]; 0.04 in [36]; 0.22 in data set [37]; 0 in [38]; 0.03 in [39]. Further, the binding signal (normalized ELISA) in data set [40] was 0.03; in data set [41], 0.25; in data set [42], 0.11. In addition, the binding signal in [43] is 1.02.

Consider “TTAGTTAAAGCGGGCTCCGAATATC (double strand) [7264 target gap G]”, for which the binding signal (normalized ELISA) in data set [34] is 0.77; in [35], 0.01; in data set [36], 0.08; in [37] it was 0.77; in data set [38] it was 0; in data set [39], 0.05. For the same sequence, the results for the binding signal (normalized ELISA) in data set [40], in [41] and in data set [42] were 0.06, 0.85 and 0.38, respectively. Moreover, the binding signal in data set [43] is 1.58.

The record behind these values is patent US20110287512.
